Test results from patent US20200024330A1.

Tests used:
Experiment in all cases: cell-based or functional assay
[1] = target: HIV-1 Env of isolate MGRM-C-008 (HIV-1)
[2] = target: HIV-1 Env of isolate MGRM-A-010 (clade A), on pseudovirus (HIV-1)
[3] = target: HIV-1 Env of isolate 92BR020 (pseudovirus) (HIV-1 isolate 92BR020, subtype B)
[4] = target: HIV-1 Env of isolate MGRM-G-025 (HIV-1)
[5] = target: HIV-1 Env of isolate MGRM-D-012 (HIV-1)
[6] = target: HIV-1 Env of isolate SF162 (HIV-1) (UniProt P19550)
[7] = target: HIV-1 Env of isolate MGRM-C-024 (HIV-1)
[8] = target: HIV-1 Env of isolate NL43 (HIV-1)
[9] = target: HIV-1 Env of isolate MGRM-Chronic-B-004 (HIV-1)
[10] = target: HIV-1 Env of isolate TRO.11 (HIV-1)
[11] = target: HIV-1 Env of isolate MGRM-F1-020 (subtype F), on pseudovirus (HIV-1)
[12] = target: HIV-1 Env of isolate MGRM-D-004 (HIV-1)
[13] = target: HIV-1 Env of isolate 92WR021 (HIV-1)
[14] = target: HIV-1 Env of isolate MGRM-C-027 (HIV-1)
[15] = target: HIV-1 Env of isolate MGRM-Chronic-B-003 (HIV-1)
[16] = target: HIV-1 Env of pseudovirus JRCSF, clade B (HIV-1) (UniProt P20871)
[17] = target: HIV-1 MGRM-F1-010 Env (pseudovirus) (HIV-1)
[18] = target: HIV-1 Env of isolate MGRM-G-006 (subtype G) (HIV-1)
[19] = target: HIV-1 Env of pseudovirus CAAN.A2 (Acute), clade B (HIV-1)
[20] = target: HIV-1 JRCSF envelope glycoprotein (Env) on pseudovirus (HIV-1) (UniProt P20871)
[21] = target: HIV-1 MGRM-C-004 Env (HIV-1)
[22] = target: HIV-1 VLGCA1 envelope glycoprotein (Env) on pseudovirus (HIV-1)
[23] = target: HIV-1 MGRM-C-023 Env (HIV-1)
[24] = target: HIV-1 92RW020 envelope protein (Env) on pseudovirus (HIV-1)
[25] = target: HIV-1 Env of isolate MGRM-G-016 (clade G pseudovirus) (HIV-1)
[26] = target: HIV-1 Env of isolate MGRM-D-002 (clade D) (HIV-1)
[27] = target: HIV-1 Env of isolate MGRM-D-005 (clade D) (HIV-1)
[28] = target: HIV-1 MGRM-A-007 envelope glycoprotein (Env) (HIV-1)
[29] = target: HIV-1 JR-CSF Env L125A (HIV-1 (isolate JR-CSF)) (UniProt P20871)
[30] = target: HIV-1 Env of isolate MG RM-D-008 (subtype D) (HIV-1)
[31] = target: HIV-1 MGRM-Chronic-B-020 Env (pseudovirus) (HIV-1)
[32] = target: HIV-1 JR-CSF Env E466A (HIV-1 (isolate JR-CSF)) (UniProt P20871)
[33] = target: HIV-1 Env of isolate MGRM-F1-006 (subtype F) (HIV-1)
[34] = target: HIV-1 Env of isolate MGRM-C-008 (pseudovirus) (HIV-1 isolate MGRM-C-008, subtype C)
[35] = target: HIV-1 MGRM-Chronic-B-001 Env (pseudovirus) (HIV-1)
[36] = target: HIV-1 MGRM-Chronic-B-023 Env (pseudovirus) (HIV-1)
[37] = target: HIV-1 JR-CSF Env F468A (HIV-1 (isolate JR-CSF)) (UniProt P20871)
[38] = target: HIV-1 MGRM-Chronic-B-002 Env (pseudovirus) (HIV-1)
[39] = target: HIV-1 Env of isolate MGRM-C-014 (pseudovirus) (HIV-1 isolate MGRM-C-014, subtype C)
[40] = target: HIV-1 Env of isolate MGRM-F1-018 (HIV-1)
[41] = target: HIV-1 MGRM-Chronic-B-024 Env (pseudovirus) (HIV-1)

Sequence of 5345_I01 (PGT-137) (antibody) (VH): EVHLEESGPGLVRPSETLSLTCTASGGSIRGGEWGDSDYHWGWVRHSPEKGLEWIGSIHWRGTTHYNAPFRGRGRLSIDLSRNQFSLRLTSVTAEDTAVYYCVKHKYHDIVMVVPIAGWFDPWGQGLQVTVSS
Sequence of 5345_I01 (PGT-137) (antibody) (VL): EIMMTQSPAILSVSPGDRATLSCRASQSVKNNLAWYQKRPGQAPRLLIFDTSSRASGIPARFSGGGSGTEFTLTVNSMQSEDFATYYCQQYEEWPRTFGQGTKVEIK
Sequence of PGT-141 (4964_G22; 4993_K13) (antibody) (VH): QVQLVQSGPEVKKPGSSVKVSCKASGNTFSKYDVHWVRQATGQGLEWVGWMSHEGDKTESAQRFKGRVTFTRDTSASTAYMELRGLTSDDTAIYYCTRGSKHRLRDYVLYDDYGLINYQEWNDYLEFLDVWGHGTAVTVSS
Sequence of PGT-141 (4964_G22; 4993_K13) (antibody) (VL): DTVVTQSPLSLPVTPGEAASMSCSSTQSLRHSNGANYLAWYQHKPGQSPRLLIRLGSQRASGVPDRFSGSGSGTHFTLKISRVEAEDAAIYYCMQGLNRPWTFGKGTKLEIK
Sequence of PGT-144 (4970_K22) (antibody) (VH): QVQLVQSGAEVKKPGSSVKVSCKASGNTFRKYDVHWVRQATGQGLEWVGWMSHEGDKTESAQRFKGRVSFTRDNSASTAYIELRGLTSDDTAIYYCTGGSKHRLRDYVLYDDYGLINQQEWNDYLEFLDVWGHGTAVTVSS
Sequence of PGT-144 (4970_K22) (antibody) (VL): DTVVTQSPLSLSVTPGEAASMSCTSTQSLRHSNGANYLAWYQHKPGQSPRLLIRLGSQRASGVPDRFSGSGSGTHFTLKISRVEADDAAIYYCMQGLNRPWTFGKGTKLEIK

Row | Substance | IC50, pseudovirus neutralization [4] | neutralization IC50 [18] | IC50 (ug/ml), neutralizing activity [20] | Fold IC50 increase relative to wild-type [29] | IC50 (µg/mL), pseudovirus neutralization [30] | IC50, pseudovirus neutralization [31] | Fold IC50 increase relative to wild-type [32] | IC50 (µg/mL), pseudovirus neutralization [33] | IC50 (µg/mL) neutralization [34] | IC50, pseudovirus neutralization [35] | IC50, pseudovirus neutralization [36] | Fold IC50 increase relative to wild-type [37] | IC50, pseudovirus neutralization [38] | IC50 (µg/mL) neutralization [39] | IC50 [40] | IC50, pseudovirus neutralization [41] | further results
1 | 5345_I01 (PGT-137) (antibody) | > 50 µg/mL | – | – | – | – | – | – | – | – | – | – | – | – | – | – | – | IC50 [1]: > 50 µg/mL; IC50, single-round pseudovirus neutralization [2]: > 50 µg/mL; IC50 (µg/mL) neutralization [3]: 7.81 µg/mL; IC50 [5]: > 50 µg/mL; IC50 [6]: 3.41 µg/mL; IC50 [7]: > 50 µg/mL; IC50 [8]: 17.4 µg/mL; IC50 [9]: > 50 µg/mL; IC50 [10]: 9.35 µg/mL; IC50, pseudovirus neutralization [11]: 1.93 µg/mL; IC50 [12]: > 50 µg/mL; neutralization IC50 [13]: 3.52 µg/mL; IC50 [14]: > 50 µg/mL; IC50 [15]: > 50 µg/mL
2 | 1496_C09 (PG9) (TCN-109) (antibody) | – | 1.98 µg/mL | 0.0048 µg/mL | – | – | – | – | – | – | – | – | – | – | – | – | – | IC50 (µg/ml), pseudovirus neutralization [16]: 0.003 µg/mL; IC50 (µg/ml), pseudovirus neutralization [17]: 0.03 µg/mL; IC50 (µg/ml), pseudovirus neutralization [19]: 5.67 µg/mL; IC50 neutralization [20]: 0.0048 µg/mL; IC80, neutralization [20]: 0.0181 µg/mL; IC90, neutralization [20]: 0.0391 µg/mL; IC95, neutralization [20]: 0.0798 µg/mL; IC50 (µg/mL), pseudovirus neutralization [5]: 16.2 µg/mL; IC50 [21]: 1.18 µg/mL; IC50 (µg/ml), pseudovirus neutralization [22]: 0.07 µg/mL; IC50 [23]: 0.51 µg/mL; neutralization IC50 [24]: 0.0637 µg/mL; IC50 (µg/ml), pseudovirus neutralization [25]: 0.4 µg/mL; IC50 (µg/mL), pseudovirus neutralization [12]: 0.06 µg/mL; IC50 (µg/ml), pseudovirus neutralization [26]: 0.027 µg/mL; IC50 (µg/ml), pseudovirus neutralization [27]: 0.59 µg/mL; IC50 (µg/ml), pseudovirus neutralization [28]: 0.37 µg/mL
3 | 5123_A06 (PGT-125) (antibody) | > 50 µg/mL | – | 0.006 µg/mL | 1.6 fold | > 50 µg/mL | 0.087 µg/mL | 1.6 fold | 0.035 µg/mL | > 50 µg/mL | > 50 µg/mL | > 50 µg/mL | 1 fold | 0.064 µg/mL | > 50 µg/mL | > 50 µg/mL | > 50 µg/mL | neutralization IC50 [20]: 0.006 µg/mL; neutralization IC80 [20]: 0.0196 µg/mL; neutralization IC90 [20]: 0.0392 µg/mL; neutralization IC95 [20]: 0.0741 µg/mL
4 | PGT-144 (4970_K22) (antibody) | – | 3.84 µg/mL | – | – | – | – | – | – | – | – | – | – | – | – | – | – | –
5 | 5141_B17 (PGT-126) (antibody) | 17.1 µg/mL | – | 0.0061 µg/mL | 1.2 fold | 43.1 µg/mL | 0.021 µg/mL | 1.4 fold | 0.078 µg/mL | 2.12 µg/mL | > 50 µg/mL | > 50 µg/mL | 0.7 fold | 0.078 µg/mL | > 50 µg/mL | 14.9 µg/mL | > 50 µg/mL | –
6 | PGV04 (antibody) | – | 0.083 µg/mL | – | – | – | – | – | – | – | – | – | – | – | – | – | – | IC50 (µg/mL), pseudovirus neutralization [5]: 0.125 µg/mL; IC50 (µg/mL), pseudovirus neutralization [12]: 43.2 µg/mL
7 | 4877_D15 (PGT-122) (antibody) | 0.079 µg/mL | – | 0.0727 µg/mL | – | > 50 µg/mL | 0.005 µg/mL | – | 3.27 µg/mL | 0.028 µg/mL | 0.138 µg/mL | 0.01 µg/mL | – | 1.8 µg/mL | > 50 µg/mL | 0.563 µg/mL | 2.31 µg/mL | –
8 | PGT-141 (4964_G22; 4993_K13) (antibody) | – | 0.043 µg/mL | – | – | – | – | – | – | – | – | – | – | – | – | – | – | –
9 | 4858_P08 (PGT-123) (antibody) | 0.046 µg/mL | – | 0.0423 µg/mL | 2.5 fold | > 50 µg/mL | 0.005 µg/mL | 0.6 fold | 6.89 µg/mL | 0.011 µg/mL | 0.15 µg/mL | 0.055 µg/mL | 0.5 fold | 0.234 µg/mL | 1 µg/mL | 0.054 µg/mL | > 50 µg/mL | IC50, pseudovirus neutralization [20]: 0.0423 µg/mL; IC80, pseudovirus neutralization [20]: 0.143 µg/mL; IC90 (pseudovirus neutralization) [20]: 0.289 µg/mL; IC95, pseudovirus neutralization [20]: 0.547 µg/mL
